B1: Tsa1 (wild type) [S. cerevisiae] / HA-tagged Pyk1 (HA-Pyk1) [S. cerevisiae] (parent)
chain 1: MVAQVQKQAPTFKKTAVVDGVFDEVSLDKYKGKYVVLAFIPLAFTFVCPTEIIAFSEAAKKFEEQGAQVLFASTDSEYSLLAWTNIPRKEGGLGPINIPLLADTNHSLSRDYGVLIEEEGVALRGLFIIDPKGVIRHITINDLPVGRNVDEALRLVEAFQWTDKNGTVLPCNWTPGAATIKPTVEDSKEYFEAANK
chain 2: MSRLERLTSLNVVAGSDLRRTSIIGTIGPKTNNPETLVALRKAGLNIVRMNFSHGSYEYHKSVIDNARKSEELYPGRPLAIALDTKGPEIRTGTTTNDVDYPIPPNHEMIFTTDDKYAKACDDKIMYVDYKNITKVISAGRIIYVDDGVLSFQVLEVVDDKTLKVKALNAGKICSHKGVNLPGTDVDLPALSEKDKEDLRFGVKNGVHMVFASFIRTANDVLTIREVLGEQGKDVKIIVKIENQQGVNNFDEILKVTDGVMVARGDLGIEIPAPEVLAVQKKLIAKSNLAGKPVICATQMLESMTYNPRPTRAEVSDVGNAILDGADCVMLSGETAKGNYPINAVTTMAETAVIAEQAIAYLPNYDDMRNCTPKPTSTTETVAASAVAAVFEQKAKAIIVLSTSGTTPRLVSKYRPNCPIILVTRCPRAARFSHLYRGVFPFVFEKEPVSDWTDDVEARINFGIEKAKEFGILKKGDTYVSIQGFKAGAGHSNTLQVSTV

Variants of: B1
Test: pull-down (co-IP with anti-HA beads, anti-Tsa1 immunoblot, band quantification)
Settings: +DTT, lane 9, lysate 67 μg/lane and 111 μg/lane for HA-Pyk1 and Tsa1, parent: 1

ratio to parent | Variant
0.5 | chain 1 MVAQVQKQAPTFKKTAVVDGVFDEVSLDKYKGKYVVLAFIPLAFTFVTPTEIIAFSEAAKKFEEQGAQVLFASTDSEYSLLAWTNIPRKEGGLGPINIPLLADTNHSLSRDYGVLIEEEGVALRGLFIIDPKGVIRHITINDLPVGRNVDEALRLVEAFQWTDKNGTVLPTNWTPGAATIKPTVEDSKEYFEAANK [chain 1 C48T C171T]

Same assay, conditions: +DTT, lane 9, lysate 67 μg/lane and 111 μg/lane for HA-Pyk1 and Tsa1, parent: 3.1

screen value (% of Total Tsa1) | Variant
1.3 | chain 1 MVAQVQKQAPTFKKTAVVDGVFDEVSLDKYKGKYVVLAFIPLAFTFVTPTEIIAFSEAAKKFEEQGAQVLFASTDSEYSLLAWTNIPRKEGGLGPINIPLLADTNHSLSRDYGVLIEEEGVALRGLFIIDPKGVIRHITINDLPVGRNVDEALRLVEAFQWTDKNGTVLPTNWTPGAATIKPTVEDSKEYFEAANK [chain 1 C48T C171T]

Reference: paper PMC5025857, “Redox-dependent Regulation of Gluconeogenesis by a Novel Mechanism Mediated by a Peroxidatic Cysteine of Peroxiredoxin” (Scientific Reports, 2016)
